Results published in patent publication US20150359847A1, “METHOD AND COMPOSITION FOR CONFERRING NEUROPROTECTION” (BLOOD SYSTEMS RESEARCH INSTITUTE, priority 2014, published 2015).

How the values were obtained:
[1] = tested on: mouse model of controlled cortical impact (CCI); test: Elevated Plus Maze in controlled cortical impact (CCI) TBI mice; type: in vivo
Description: The mouse controlled cortical impact (CCI) injury model was used as previously described. In brief, mice were anesthetized with 5% isoflurane and 1:1 O2:N2 mixture. Animals were mounted on a stereotaxic frame and were secured by ear bars and an incisor bar. Anesthesia was maintained with 2.0% isoflurane and 1:1 O2:N2 mixture. A 5-mm-diameter craniotomy was made midway between bregma and lambda on the right side, with the medial edge of the craniotomy 1 mm lateral to midline. Injury was produced using a magnetic impactor mounted at an angle of 110° from the vertical plane. A single impact at a velocity of 4+/−0.2 m/s was used inflict a moderate to severe injury (1.2-1.3 mm impact depth). After injury, the incision was closed. Sham animals underwent identical surgeries except for impact injury. Core body temperature was monitored using a rectal thermometer and maintained at 36.8° C.-37.2° C. with a heating pad throughout the procedure. […] Animal research was performed with approval of the Institutional Animal Care and Use Committee at ISIS Services LLC (San Carlos, Calif., USA). […]
The elevated plus maze was used to assess anxiety behavior in mice. […] The frequency of entries into the open and closed arms was recorded with an overhead camera using tracking software (Ethovision, Noldus Information Technology, Leesbury, Va.).

[2] = tested on: phospho-S6 Ribosomal Protein (S235/236) in hippocampus; test: Hippocampal phospho-S6RP western blot and tissue staining 3 days post-TBI; type: in vivo, mouse
Description: The mouse controlled cortical impact (CCI) injury model was used as previously described. In brief, mice were anesthetized with 5% isoflurane and 1:1 O2:N2 mixture. Animals were mounted on a stereotaxic frame and were secured by ear bars and an incisor bar. Anesthesia was maintained with 2.0% isoflurane and 1:1 O2:N2 mixture. A 5-mm-diameter craniotomy was made midway between bregma and lambda on the right side, with the medial edge of the craniotomy 1 mm lateral to midline. Injury was produced using a magnetic impactor mounted at an angle of 110° from the vertical plane. A single impact at a velocity of 4+/−0.2 m/s was used inflict a moderate to severe injury (1.2-1.3 mm impact depth). After injury, the incision was closed. Sham animals underwent identical surgeries except for impact injury. Core body temperature was monitored using a rectal thermometer and maintained at 36.8° C.-37.2° C. with a heating pad throughout the procedure. For treatments, TIMP3 (60.0 μg/kg) or vehicle control (PBS) administration was performed at 2, 24, and 48 hrs after injury via tail vein injections in a total volume of 125 μl. Animal research was performed with approval of the Institutional Animal Care and Use Committee at ISIS Services LLC (San Carlos, Calif., USA). Mice received humane care according to the criteria outlined by the National Research Council's Institute of Laboratory Animal Resources in the “Guide for the Care and Use of Laboratory Animals”. Neurocognitive testing conducted at UT Houston was in compliance with University of Texas Houston Institutional Animal Care and Use Committee.
Following treatments mice were subjected to a intra-cardiac perfusion-fixation procedure under isoflurane anesthesia. In brief, following a small incision into the right ventricle, a blunt needle was placed 5 mm into the heart and clamped in place. The left atrium was cut and 30 mls of ice cold PBS was perfused through the mouse using a syringe pump at a constant rate of 4 ml/min. After PBS the procedure was repeated with 30 ml of 4% ice-cold paraformaldehyde (PFA) in PBS. Upon completion of the perfusion procedure, brains were dissected out and placed in 20 mls of 4% PFA for a further 24 hrs before transferring to a 30% sucrose solution for an additional 48 hrs. Following sucrose infiltration, brains were frozen in Tissue-Tek O.C.T.™ compound (Cat#4583, Sakura Fineteck USA, Inc. Torrance, Calif.) using an isopentane/dry ice bath. To prepare coronal sections for tissue staining 20 μm thick sections were obtained using a Leica CM1850™ cryostat (Leica Microsystems, Buffalo Grove, Ill.). Sections were immediately placed in a Storage Solution (30% Glycerol, 30% Ethylene Glycol, 40% 0.1M Phosphate Buffer pH 7.2) and stored at −20° C. until required.
The same protocol was adopted for both tissue sections and isolated neuronal cultures. Briefly, sections were permeabilized with antibody staining solution:—2% w/v BSA (Cat# A3059. Sigma, St Louis, Mo.), 0.1% Triton X-100™ (Cat# X100. Sigma, St Louis, Mo.), 2% v/v goats serum (Cat# S-1000, Vector Labs, Burlingame, Calif.) in PBS. Sections were incubated overnight with primary antibodies on a rotating shaker at 4° C. Sections were then washed three times for 3 min with PBS, and then incubated with secondary antibodies for 1 hr. After staining, sections were washed in PBS, briefly air dried, and coverslipped using Prolong™ gold anti-fade reagent with DAPI (Cat# P36931, Life Technologies, Grand Island, N.Y.). Isolated neuronal cultures underwent the same staining protocol with the exception of the last step in which Prolong gold anti-fade reagent with DAPI was added to the wells of the culture plate sufficient to cover the material. Images were obtained using a Leica DMI6000-B™ inverted microscope, Leica DFC36-FX™ digital camera and Leica Application Suite™ (L.A.S.) software, version 3.1. […]

SH-SY5Y cells = test: Colorimetric neurite outgrowth assay; type: cell-based, human; conditions: 1 μg/ml TIMP3, 48 hrs
Experimental: Neurite Outgrowth Assay Kit™ 3 μm (Cat# NS220) and AXIS™ Axon Isolation Devices, 150 μm, Plasma Bonded chamber slides (Cat# AX15005PB) were purchased from (EMD Millipore, Billerica, Mass.). For neurite outgrowth assays SH-SY5Y cells were initially differentiated for 24 hrs at a density of 4×10^5 cells per well of a 6-well plate. Cells were then dissociated using kit supplied dissociation buffer and 3×10^5 cells were replated onto transwell inserts. […] Assay was conducted per manufacturer's instructions.

B1: TIMP3: Recombinant tissue inhibitor of matrix metalloproteinase-3, a soluble protein released by MSCs, obtained from Amgen Inc. (protein)
chain: CTCSPSHPQDAFCNSDIVIRAKVVGKKLVKEGPFGTLVYTIKQMKMYRGFTKMPHVQYIHTEASESLCGLKLEVNKYQYLLTGRVYDGKMYTGLCNFVERWDQLTLSQRKGLNYRYHLGCNCKIKSCYYLPCFVTSKNECLWTDMLSNFGYPGYQSKHYACIRQKGGYCSWYRGWAPPDKSIINATDP
With B1 the “frequency of entries into the closed arms (Elevated Plus Maze)” value ([1]; TBI+TIMP3 vs TBI alone, day 3) was “comparable frequency”, the “frequency of entries into the open arms (Elevated Plus Maze)” value ([1]; TIMP3 60 μg/kg tail-vein at 1 hr, 24 hrs, 72 hrs post-TBI, EPM on day 3, vs TBI alone) was 11±1.8 and the “ipsilateral hippocampal phospho-S6RP levels versus sham controls” value ([2]; 3 days post-TBI, western blot) was “are not significantly elevated in TBI alone versus sham controls unlike IV TIMP3 treated animals versus Sham controls”. The “phospho-S6 Ribosomal Protein (S235/236) in ipsilateral hippocampal homogenates” value ([2]; TIMP3 60 μg/kg IV x3, day 3, western blot, vs TBI alone) was “significantly elevates”, the “phospho-S6RP pixel density in area CA3” value ([2]; day 3, tissue staining) was “significant elevation” and the “phospho-S6RP/NeuN+ve neurons in the GCL proximal to injury site” value ([2]; day 3, tissue staining) was “an elevation with TIMP3 treatment”. The “phospho-S6RP (S235/236) in contralateral hippocampal homogenates” value ([2]; day 3, western blot) was “No differences were observed”, the “phosphorylated S6RP staining in the non-neuronal molecular layer (microglia/astrocytes)” value ([2]; ipsilateral hippocampus, day 3) was “Neither sham controls nor TIMP3 treated TBI mice showed this pattern of staining” and the “neurite outgrowth (colorimetric)” value (SH-SY5Y cells) was “promotes increased neurite outgrowth”.
